Laboratory results from patent US20100239605A1.

Legend:
[1] = biological target: HRV14-NimII-XXX17AA library (Human rhinovirus 14; influenza type A virus) (UniProt P03303); test: cell-based or functional assay
[2] = biological target: HRV14-NimII-XXX23AA library (Human rhinovirus 14; influenza type A virus) (UniProt P03303); test: cell-based or functional assay

anti-M2e Mab 14C2 (Abcam, Inc; Cat# ab5416) (antibody)
Fifty-percent neutralization (PRNT) (reciprocal dilution of 1 mg/ml stock) [1]: 2e+06
Fifty-percent neutralization (PRNT) (reciprocal dilution of 1 mg/ml stock) [2]: 2e+06
